# Laboratory results as given in patent US20260049134A1 (UNIVERSITY OF FLORIDA RESEARCH FOUNDATION, published 2026).
# T1: IL13RA1
# T1 construct: coated protein in the ELISA; also called IL13RA1-Fc-His (R&D Systems)
# T1 chain: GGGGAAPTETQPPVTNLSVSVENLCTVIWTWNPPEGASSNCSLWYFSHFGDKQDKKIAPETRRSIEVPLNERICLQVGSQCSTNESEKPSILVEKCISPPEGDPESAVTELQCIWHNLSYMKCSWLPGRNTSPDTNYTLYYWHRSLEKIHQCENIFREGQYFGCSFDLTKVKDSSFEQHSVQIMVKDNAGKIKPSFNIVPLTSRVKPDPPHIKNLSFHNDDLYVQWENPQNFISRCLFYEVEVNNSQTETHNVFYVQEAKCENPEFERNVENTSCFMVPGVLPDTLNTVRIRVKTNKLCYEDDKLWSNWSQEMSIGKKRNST
# B1: TH9-0022 (antibody, human IgG1, kappa, L234A L235A, V domains shown)
# VH: QSLEESGGRLVTPGTPLTLTCTVSGFSLSSYAMNWVRQAPGKGLEWIGIINSYGSTYYASWAKGRFTISKTSTTVDLKITSPTTEDTATYFCARVTYDSYGYGYAPYGMDLWGPGTLVTVSS
# VL: LVMTQTPSSTSNAVGGTVTIKCQASQSIGNVLAWYQQKPGQPPKLLIYAASTLASGVPSRVGGSRSGTEYTLTISGVQREDAATYYCLGSDSDSDIAFGGGTELEILR
# notes: also called TH9-022; negative control
# B2: TH9-0022 (antibody, human IgG1, kappa, L234A L235A, V domains shown)
# VH: QSLEESGGRLVTPGTPLTLTCTVSGFSLSSYAMNWVRQAPGKGLEWIGIINSYGSTYYASWAKGRFTISKTSTTVDLKITSPTTEDTATYFCARVTYDSYGYGYAPYGMDLWGPGTLVTVSS
# VL: LVMTQTPSSTSNAVGGTVTIKCQASQSIGNVLAWYQQKPGQPPKLLIYAASTLASGVPSRVGGSRSGTEYTLTISGVQREDAATYYCLGSDSDSDIAFGGGTELEILR
# notes: also called TH9-022; negative control IgG1
# B3: HW-42 chimeric rabbit-human IgG1 LA/LA/PG (antibody, V domains shown)
# VH: QSVKESEGGLFKPADTLTLTCTVSGFSLSSNEISWVRQAPGEGLEYIGIIDTGGRAYYAVWARSRSTITRNTNLNTVTLKMTSLTAADTATYFCARGGVDTEWYAFSSWGPGTLVTVPS
# VL: SFVLTQPASVQVNLGQTVSLTCTADTLSRRYASWYQQKPGQAPVLLIFRDTSRPSGVPDRFSGSSSGDTATLTISGAQAGDEADYYCATSDGSGSNYQYVFGGGTQLTVTG
# notes: Fc-silenced (L234A/L235A/P329G) IgG1, lambda; Alexa Fluor 647-labeled in single-step flow cytometry; Cluster C-1
# B4: HW-101 chimeric rabbit-human IgG1 LA/LA/PG (antibody, V domains shown)
# VH: QEQLVESGGRLVTPGTPLTLTCKASGFSLGKYDMSWVRQAPGKGLEWIGTIYAGSGSTWYASWAKGRFTISKTSTTVDLKMTSLTTEDTATYFCARDFLGVNSIWGPGTLVTISS
# VL: SFVLTQPASVQVNLGQTVSLTCTADTLSRSYASWYQQKPDQAPVLLIHRDTSRPSGVPDRFSGSNSGNTATLTISGAQAGDEADYYCATSDGSGSNFHFVFGGGTQLTVTG
# notes: Fc-silenced (L234A/L235A/P329G) IgG1, lambda; Alexa Fluor 647-labeled in single-step flow cytometry; Cluster C-97
# B5: HW-70 chimeric rabbit-human IgG1 LA/LA/PG (antibody, V domains shown)
# VH: QSLEESGGRLVTPGTPLTLTCTVSGFSLSSNAMSWVRQAPGKGLEWIGTIDGYGYTYYASWAKGRFTVSKTSTTVDLKITSPTTEDTATYFCAREIYLGSNFWGPGTLVTISS
# VL: SFVLTQPASVQVNLGQTVSLTCTADTLSRRYASWYQQKPGQAPVLLIYRDTSRPSGVPDRFSGSSSGNTATLTISGAQAGDEADYYCATADGSGSSYQFVFGGGTQLTVTG
# notes: as for B3
# B6: HW-17 chimeric rabbit-human IgG1 LA/LA/PG (antibody, V domains shown)
# VH: QSLGESRGRLVTPDETLTLTCTVSGIDLSSNAMSWVRQAPGEGLEWIGTINTGGRAYYASWAKGRFTISRTSTTVDLKMTSLTTEDTATYFCARERYSDGRAYDIWGPGTLVTISS
# VL: SFVLTQPASVQVNLGQTVSLTCTADTLSRRYASWYQQKPGQAPVLLIYTDSNRPSGIPDRFSGSSSGNTATLTISGAQAGDEADYYCATDDGSGSIYQYVFGGGTQLTVTG
# notes: as for B3
# B7: HW-25 chimeric rabbit-human IgG1 LA/LA/PG (antibody, V domains shown)
# VH: QSLEESGGRLVTPGTPLTLTCTVSGFSLSSYAMGWVRQAPGKGLEWIGIIDSRGSTYYATWAKGRFTISKTSTTVDLKITSPTTEDTATYFCAREDSYYYDSFNLWGPGTLVTVSS
# VL: SFVLTQPASVQVNLGQTVSLTCTADTLSRRYASWYQQKPGQAPVLLIYRDTSRPSGVPDRFSGSSSGNTATLTISGAQAGDEADYYCATSDGSGSSYQCVFGGGTQLTVTG
# notes: as for B3
# B8: HW-97 chimeric rabbit-human IgG1 LA/LA/PG (antibody, V domains shown)
# VH: QKQLVESGGRLVTPGTPLTLTCTVTGIDLSSHGMSWVRQAPGKGLEWIGVIYPSGSTWYASWARGRFTISKTSTTVDLKMTSLTTEDTATHFCARGDVGGADNNIWGPGTLVTVSS
# VL: SFVLTQPASVQVDLGQTVSLTCTAETLSRSYASWYQQKPGQAPVLLIYRDTSRPSGVPDRFSGSSSGNTATLTISGAQAGDEADYYCATSDGSGSSYQYVFGGGTQLTVTG
# notes: Fc-silenced (L234A/L235A/P329G) IgG1, lambda; Alexa Fluor 647-labeled in single-step flow cytometry; Prototype of cluster C-97
# B9: HW-113 chimeric rabbit-human IgG1 LA/LA/PG (antibody, V domains shown)
# VH: QKQLVESGGGLVQPGGSLTLTCTVSGFSLNKYYMGWFRQAPGKGLEWIGVISRSGDTYYSSWAKGRFTISKASTTVDLRITSPTTEDTATYFCARDASSPGFHGDRLDLWGQGTLVTVSS
# VL: SFVLTQPASVQVNLGQTVSLTCTADTLSRSYASWYQQKPGQAPVLLIYRDTSRPSGVPDRFSGSSSGNTATLTISGAQAGDEADYYCATSDGIGSNYLWVFGGGTQLTVTG
# notes: Fc-silenced (L234A/L235A/P329G) IgG1, lambda; Alexa Fluor 647-labeled in single-step flow cytometry
# B10: HW-1 chimeric rabbit-human IgG1 LA/LA/PG (antibody, V domains shown)
# VH: QSLEESGGGLFKPTDTLTLTCTASGFSLGSSYAISWVRQAPGKELEWIGTIDSGRAYYARWAKSRSTITRNTNENTVTLKMTSLTAADTATYFCARDLIPTYSQDIWGPGTLVTISS
# VL: SFVLTQPASVQVNLGQTVSLTCTADTLSRRYASWYQQKPGQAPVLLIYRDTSRPSGVPDRFSGSSSGNTATLTISGAQAGDEADYYCATSDGSGNSYQYVFGGGTQLTVTS
# notes: Fc-silenced (L234A/L235A/P329G) IgG1, lambda; Alexa Fluor 647-labeled in single-step flow cytometry; Prototype of cluster C-1
# Assays:
# IL13RA1 = biological target: T1, IL13RA1; test: ELISA on coated IL13RA1-Fc-His
# Procedure: Recombinant purified ECDs (50-150 ng) of each putative target protein were coated, incubated with 150 ng of the indicated primary antibody, and binding was detected using a peroxidase-conjugated anti-human Fab secondary antibody. Heatmap represents averages of technical triplicates. (8B) Target validation via siRNA knockdown. H929 cells were transfected with siRNA pools targeting the putative antibody targets ICAM1, CADM1, and PTPRG. Cells were then subjected to cognate IgG binding analysis via flow cytometry. (NT, non-targeting siRNA).
# ELISA ELISA was conducted as described previously. Briefly, 50-150 ng of antigen was coated overnight in half-area 96-well plates at 4° C., blocked with 3% BSA at 37° C. for 1 h, and 150 ng of chimeric rabbit/human IgG1 was added, incubating for 2 h at 37° C. […] After incubating at 37° C. for 15 min-1 h (depending on intensity of controls), data were acquired using a SpectraMax M5 plate reader (Molecular Devices).
# [1] = biological target: T2, PTPRG, endogenous in H929 multiple myeloma cells (human, UniProt P23470 20-1445); test: flow cytometry, H929 + NT Green siRNA; None 416
# T2 construct: Native protein on H929 cells (flow cytometry, siRNA knockdown) and in H929 lysates (IP/MS); also called phosphatase receptor type γ
# T2 sequence (P23470 20-1445 limits assumed): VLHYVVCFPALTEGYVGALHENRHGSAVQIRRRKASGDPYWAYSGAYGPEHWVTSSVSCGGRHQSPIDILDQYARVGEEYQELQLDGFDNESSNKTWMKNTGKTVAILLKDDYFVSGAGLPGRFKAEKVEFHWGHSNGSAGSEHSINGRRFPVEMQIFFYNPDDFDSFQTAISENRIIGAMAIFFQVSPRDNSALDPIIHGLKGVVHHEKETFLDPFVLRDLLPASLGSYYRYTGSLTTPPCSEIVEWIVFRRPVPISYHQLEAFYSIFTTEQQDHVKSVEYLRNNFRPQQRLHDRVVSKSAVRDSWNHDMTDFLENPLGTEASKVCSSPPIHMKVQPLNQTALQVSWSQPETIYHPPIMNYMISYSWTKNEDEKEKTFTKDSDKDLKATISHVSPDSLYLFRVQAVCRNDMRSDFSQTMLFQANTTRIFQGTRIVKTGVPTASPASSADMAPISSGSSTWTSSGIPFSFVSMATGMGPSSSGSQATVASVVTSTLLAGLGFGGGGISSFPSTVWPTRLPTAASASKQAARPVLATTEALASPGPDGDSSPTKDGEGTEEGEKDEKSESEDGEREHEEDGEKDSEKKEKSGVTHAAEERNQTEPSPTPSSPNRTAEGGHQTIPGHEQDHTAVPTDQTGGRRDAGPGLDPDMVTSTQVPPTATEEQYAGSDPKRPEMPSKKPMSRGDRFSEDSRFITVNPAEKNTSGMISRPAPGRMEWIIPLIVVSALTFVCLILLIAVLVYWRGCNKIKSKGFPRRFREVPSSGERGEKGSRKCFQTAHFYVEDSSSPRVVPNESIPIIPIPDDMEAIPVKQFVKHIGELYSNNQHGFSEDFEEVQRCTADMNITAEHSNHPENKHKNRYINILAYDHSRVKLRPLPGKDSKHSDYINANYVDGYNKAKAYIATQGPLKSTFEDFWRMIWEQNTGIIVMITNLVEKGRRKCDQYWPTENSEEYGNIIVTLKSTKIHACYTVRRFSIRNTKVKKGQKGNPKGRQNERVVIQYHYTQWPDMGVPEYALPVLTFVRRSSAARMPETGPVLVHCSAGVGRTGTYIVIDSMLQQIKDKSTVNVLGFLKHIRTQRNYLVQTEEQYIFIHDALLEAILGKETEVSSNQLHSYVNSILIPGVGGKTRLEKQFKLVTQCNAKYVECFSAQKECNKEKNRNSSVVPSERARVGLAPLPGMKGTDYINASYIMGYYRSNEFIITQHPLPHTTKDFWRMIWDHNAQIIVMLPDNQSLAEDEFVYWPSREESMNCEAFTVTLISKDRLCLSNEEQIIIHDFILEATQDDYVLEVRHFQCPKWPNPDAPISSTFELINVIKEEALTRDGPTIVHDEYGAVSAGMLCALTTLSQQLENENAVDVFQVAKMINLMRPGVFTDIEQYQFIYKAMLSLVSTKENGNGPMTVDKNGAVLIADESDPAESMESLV
# PTPRG on U266 cells = biological target: T3, PTPRG on U266 cells (human, UniProt P23470); test: flow cytometry, IgG1 on U266 cells
# T3 construct: endogenous on U266 multiple myeloma cells; also called HW-1 target on U266
# T3 sequence (P23470 20-1445 limits assumed): as above
# Procedure: Staining protocol. Cells were harvested (5×10⁴ cells per sample), washed once with phosphate-buffered saline (PBS) at RT, and a second time with ice-cold FACS buffer (PBS, 0.5% BSA, 2 mM EDTA, 0.1% NaN₃). Cells were stained in 50 μL of primary antibody for 30 min on ice, washed twice with 100 μL FACS buffer, stained with 50 μL of diluted secondary antibody, washed two more times in FACS, and then resuspended in 50 μL FACS buffer. Samples were acquired on an Accuri C6 Plus or a BD FACSCanto II flow cytometer (both from BD Biosciences). Data were analyzed using FlowJo version 10 software. Primary antibodies: Fab (10 μg/mL), IgG1 (0.1 to 50 μg/mL), or 25 μL polyclonal Fabs from periplasmic extracts. Polyclonal Fabs were produced by diluting bacterial stocks by a factor of 100 in autoinduction media and incubating overnight to induce expression as previously described. […] Viability stains: DAPI (Cell Signaling Technology) or SYTOX AADvanced Dead Cell Stain (Thermo Fisher Scientific). Labeling: The panel of chimeric rabbit/human IgG1s was labeled using the Alexa Fluor 647 Labeling Kit (Thermo Fisher Scientific, #A20173) to facilitate single-step staining. Competition: Unlabeled IgG1s were added at saturating concentrations of 60 μg/mL to block the target receptors, incubating on ice for 30 min, followed by the addition of an equal volume of the Alexa Fluor 647 labeled antibody at 2 μg/mL, and the mixture was incubated on ice for another 30 min.
Binder,binding result (IL13RA1),mAb binding (MFI) [1],antibody-bound positive cells (%) (PTPRG on U266 cells)
B1,no binding (tested: 150 ng IgG1 per well),483,
B2,,,6.5
B3,no binding (tested: 150 ng IgG1 per well),8410,64.5
B4,no binding (tested: 150 ng IgG1 per well),,
B5,no binding (tested: 150 ng IgG1 per well),12600,76
B6,no binding (tested: 150 ng IgG1 per well),18600,85.2
B7,no binding (tested: 150 ng IgG1 per well),7680,69.6
B8,no binding (tested: 150 ng IgG1 per well),,
B9,no binding (tested: 150 ng IgG1 per well),,
B10,no binding (tested: 150 ng IgG1 per well),16000,84.4
